For test [1], the target named is T1, hGas6-FH-L314A, Q315A, P316A (alanine substitution variant) (human, UniProt Q14393 1-678).
T1 construct: Limits of the deletion derived as for hGas6-FH; also called alanine variant
T1 chain: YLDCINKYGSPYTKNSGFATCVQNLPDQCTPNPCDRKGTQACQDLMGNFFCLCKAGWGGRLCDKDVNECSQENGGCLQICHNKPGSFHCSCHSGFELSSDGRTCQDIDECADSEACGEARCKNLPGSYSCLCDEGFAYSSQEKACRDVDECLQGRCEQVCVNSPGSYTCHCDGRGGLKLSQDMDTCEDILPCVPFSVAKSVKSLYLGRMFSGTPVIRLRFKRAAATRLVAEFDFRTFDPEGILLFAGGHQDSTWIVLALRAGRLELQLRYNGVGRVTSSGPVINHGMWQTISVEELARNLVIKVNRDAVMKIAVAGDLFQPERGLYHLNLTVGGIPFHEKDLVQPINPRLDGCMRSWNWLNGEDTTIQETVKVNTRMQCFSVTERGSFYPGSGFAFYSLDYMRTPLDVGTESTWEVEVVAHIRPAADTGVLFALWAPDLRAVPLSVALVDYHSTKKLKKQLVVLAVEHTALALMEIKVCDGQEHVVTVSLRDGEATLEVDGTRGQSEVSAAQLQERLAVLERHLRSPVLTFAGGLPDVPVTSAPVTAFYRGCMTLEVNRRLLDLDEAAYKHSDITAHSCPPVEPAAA
Kind of test: ELISA, variant captured by anti-FLAG, biotinylated antibody. How it is done:
First, 2 μg/mL anti-FLAG antibody [Monoclonal ANTI-FLAG M2 antibody produced in mouse (manufactured by Sigma-Aldrich Co. LLC) diluted with PBS (manufactured by Nacalai Tesque, Inc.)] was dispensed at 50 μL/well to a 96-well plate for ELISA (manufactured by Nalge Nunc International), and the plate was left standing overnight at 4° C. for adsorption. After removal of the immobilization solution, 1% BSA-PBS (manufactured by Nacalai Tesque, Inc.) was added thereto at 300 μL/well, and the plate was left standing at room temperature for 1 hour for blocking and washed five times with Tween 20-PBS (manufactured by Wako Pure Chemical Industries Ltd.).
Each antibody solution was dispensed thereto at 50 μL/well, and the plate was left standing at room temperature for 1 hour. This plate was washed five times with Tween 20-PBS. Then, Streptavidin HRP Conjugate (manufactured by R&D Systems, Inc.) diluted 200-fold with 1% BSA-PBS was dispensed thereto at 50 μL/well, and the plate was left standing at room temperature for 1 hour. This plate was washed five times with Tween 20-PBS, and TMB (manufactured by Sigma-Aldrich Co. LLC) was added thereto at 50 μL/well and reacted. […] The absorbance at a sample wavelength of 450 nm and a reference wavelength of 570 nm (450 nm-570 nm) was measured using a plate reader.
In general terms: ELISA stands for enzyme-linked immunosorbent assay.

The target in test [2] is T2, C-terminally FLAG-tagged human Gas6 recombinant protein (hGas6-F) (human, UniProt Q14393 31-678, gamma-carboxylated glutamic acid residues in the Gla domain (producer cells co-express rat VKOR and human GGCX); positions not given).
T2 construct: also called human Gas6-F; human Gas6 protein
T2 sequence: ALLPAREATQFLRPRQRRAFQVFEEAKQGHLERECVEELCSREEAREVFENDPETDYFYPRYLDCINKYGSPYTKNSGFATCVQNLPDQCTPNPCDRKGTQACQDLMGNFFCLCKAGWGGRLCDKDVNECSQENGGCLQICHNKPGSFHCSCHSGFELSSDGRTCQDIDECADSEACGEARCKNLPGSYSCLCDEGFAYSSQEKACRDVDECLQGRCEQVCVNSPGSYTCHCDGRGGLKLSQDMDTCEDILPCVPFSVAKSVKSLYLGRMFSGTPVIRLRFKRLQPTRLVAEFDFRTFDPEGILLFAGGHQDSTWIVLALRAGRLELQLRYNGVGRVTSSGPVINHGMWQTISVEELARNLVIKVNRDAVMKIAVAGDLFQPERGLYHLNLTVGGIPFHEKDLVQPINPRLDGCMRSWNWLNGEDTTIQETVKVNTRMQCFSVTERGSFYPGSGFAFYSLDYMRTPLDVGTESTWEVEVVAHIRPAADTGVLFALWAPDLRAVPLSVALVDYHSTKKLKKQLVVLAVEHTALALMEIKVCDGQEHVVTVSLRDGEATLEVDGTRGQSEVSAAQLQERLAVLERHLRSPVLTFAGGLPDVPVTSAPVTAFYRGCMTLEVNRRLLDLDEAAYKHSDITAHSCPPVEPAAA
Kind of test: ELISA, Gas6-F captured by anti-FLAG, biotinylated antibody. How it is done: After removal of the immobilization solution, 1% BSA-PBS (manufactured by Nacalai Tesque, Inc.) was added thereto at 300 μL/well, and the plate was left standing at room temperature for 1 hour for blocking and washed five times with Tween 20-PBS (manufactured by Wako Pure Chemical Industries Ltd.).
Each antibody solution was dispensed thereto at 50 μL/well, and the plate was left standing at room temperature for 1 hour. This plate was washed five times with Tween 20-PBS. Then, Streptavidin HRP Conjugate (manufactured by R&D Systems, Inc.) diluted 200-fold with 1% BSA-PBS was dispensed thereto at 50 μL/well, and the plate was left standing at room temperature for 1 hour. This plate was washed five times with Tween 20-PBS, and TMB (manufactured by Sigma-Aldrich Co. LLC) was added thereto at 50 μL/well and reacted. At an appropriate point in time, the reaction was terminated by the addition of 1 N hydrochloric acid (manufactured by Wako Pure Chemical Industries Ltd.) at 50 μL/well. The absorbance at a sample wavelength of 450 nm and a reference wavelength of 570 nm (450 nm-570 nm) was measured using a plate reader.

Test [3] deals with T3, human protein S (derived from human serum; Enzyme Research Laboratories) (human, UniProt P07225 42-676).
T3 construct: Homologue of Gas6 used as specificity control
T3 sequence (looked up): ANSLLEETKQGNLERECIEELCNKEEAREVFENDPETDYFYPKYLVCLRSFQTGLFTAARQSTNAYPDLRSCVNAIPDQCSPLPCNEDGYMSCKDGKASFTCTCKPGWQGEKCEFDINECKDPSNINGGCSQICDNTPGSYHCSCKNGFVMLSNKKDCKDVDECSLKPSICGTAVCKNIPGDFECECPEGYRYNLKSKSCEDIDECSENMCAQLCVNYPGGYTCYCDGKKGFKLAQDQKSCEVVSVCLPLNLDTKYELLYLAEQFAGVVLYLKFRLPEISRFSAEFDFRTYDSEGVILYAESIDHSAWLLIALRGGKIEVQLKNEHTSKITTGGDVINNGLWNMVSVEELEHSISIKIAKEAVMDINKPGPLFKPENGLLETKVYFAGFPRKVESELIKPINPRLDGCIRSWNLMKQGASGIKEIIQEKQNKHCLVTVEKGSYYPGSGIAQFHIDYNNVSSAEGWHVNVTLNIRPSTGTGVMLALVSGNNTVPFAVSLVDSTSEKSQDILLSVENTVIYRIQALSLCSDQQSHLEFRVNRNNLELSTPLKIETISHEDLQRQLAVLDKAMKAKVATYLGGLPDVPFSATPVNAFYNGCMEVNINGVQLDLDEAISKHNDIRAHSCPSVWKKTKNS
Kind of test: ELISA: human protein S coated directly on the plate (2 µg/mL); biotinylated test antibody; streptavidin-HRP/TMB (Example 6, method of Example 5(5)) [F]. The method, then:
First, a 2 μg/mL solution of the antigen (prepared from each antigen with PBS (manufactured by Nacalai Tesque, Inc.)) was dispensed at 50 μL/well to a 96-well plate for ELISA (manufactured by Nalge Nunc International), and the plate was left standing overnight at 4° C. for adsorption. The plate was washed five times with Tween 20-PBS. Then, 1% BSA-PBS (manufactured by Nacalai Tesque, Inc.) was added thereto at 300 μL/well, and the plate was left standing at room temperature for 1 hour for blocking and washed five times with Tween 20-PBS (manufactured by Wako Pure Chemical Industries Ltd.). Next, the hybridoma culture supernatant was dispensed thereto as a test substance at 50 μL/well, and the plate was left standing at room temperature for 1 hour and then washed five times with Tween 20-PBS. Next, polyclonal goat anti-mouse immunoglobulins/HRP (Dako Denmark A/S, P0447) diluted 2000-fold with 1% BSA-PBS was dispensed thereto at 50 μL/well, and the plate was left standing at room temperature for 1 hour. The plate was washed five times with Tween 20-PBS, and TMB (manufactured by Sigma-Aldrich Co. LLC) was added thereto at 50 μL/well and reacted. At an appropriate point in time, the reaction was terminated by the addition of 1 N hydrochloric acid (manufactured by Wako Pure Chemical Industries Ltd.) at 50 μL/well. The absorbance at a sample wavelength of 450 nm and a reference wavelength of 570 nm (450 nm-570 nm) was measured using a plate reader (Spectra Max, manufactured by Molecular Devices, LLC).
The binding activity of the obtained antibodies against human protein S was measured in the same way as in Example 5(5). […] The secondary detection reagent used was Streptavidin HRP Conjugate (manufactured by R&D Systems, Inc.) diluted 200-fold with 1% BSA-PBS.

Test [4] addresses T2, C-terminally FLAG-tagged human Gas6 …. Kind of test: SPR Biacore T100, captured antibody, Gas6 analyte, first test. Background: SPR reads the build-up and loss of mass on a sensor chip optically.
Test [5] shares this target. The description is as above. The method, then:
The measurement instrument used was Biacore® T100 (manufactured by GE Healthcare Japan Corp.).
An anti-human IgG antibody was immobilized on a CM5 sensor chip (manufactured by GE Healthcare Japan Corp.) using Human Antibody Capture Kit (manufactured by GE Healthcare Japan Corp.) according to the attached manual. Each test antibody adjusted to 1 μg/mL was added for 10 seconds at a flow rate of 10 μL/min to flow cells. […] The measurement was performed by the […] method. The obtained sensorgram was analyzed using Bia Evaluation Software (manufactured by GE Healthcare Japan Corp.), and the kinetic constant of each antibody was calculated.
This is another data set of the same source.

Some results are limits rather than exact numbers.

The results in this text go back to US20180339041A1 (Kyowa Kirin, published 2018).

B1: anti-human Gas6 mouse-rat chimeric antibody KM5321-rKG1 (antibody, V domains shown)
VH: QIQLVQSGPELKKPGETVKISCRASGYTFTNYGMNWVKQAPGKGLKWMGWINTNTGEPTYTEEFKGRFAFSLETSATTAYLQINDLKNEDTATYFCARDEGWFVYWGQGTLITVSA
VL: ETTVTQSPASLSVATGEKVTIRCITSTDIDDDMNWYQQKPGEPPKLLISEGNTLRPGVPSRFSSSGYGTDFVFTIENTLSEDVADYYCLQTDSVPLTFGAGTKLELK
notes: 96 and 98 are not tied in words; also called KM5321-rKG1 antibody
For B1, the binding result in test [1] was “no binding”.

B2: CNTO antibody (anti-Gas6 monoclonal antibody WG1 of U.S. Pat. No. 7,547,767, remade) (antibody, V domains shown)
VH: QVQLVESGGGVVQPGRSLRLSCAASGFTFSSYGMHWVRQAPGKGLEWVAVIWYDGSNKYYADSVKGRFTISRDNSKNTLYLQMNSLRAEDTAMYFCAREGFYYDILTAYSLEYFQHWGQGTLVTVSS
VL: EIVLTQSPDFQSVTPKEKVTITCRASQSIGSSLHWYQQKPDQSPKLLIKYASQSFSGVPSRFSGSGSGTDFTLTINSLEAEDAAAYYCHQSSSLPYTFGQGTKLEIK
notes: Expressed from vector pKANTEX93 in CHO; also called CNT0300
Consider B2, for which, in test [2], the “antibody concentration at which binding activity was detected” value is 0.04 µg/mL; the “binding activity at 5 µg/mL against the largest activity of KM5320-mKG1 and KM5321-mKG1” value was < 0.5 fold. The binding result in test [3] is listed as “no binding (tested: 5 µg/mL)”.

B3: hzKM5321 LV0HV0 antibody (antibody, V domains shown)
VH: QVHLVQSGSELKKPGASVKISCKASGYTFTNYGMNWVRQAPGQGLEWMGWINTNTGEPTYTEEFKGRFVFSLDTSVTTSYLQISTLKAEDTAVYFCARDEGWFVYWGQGTLVTVSS
VL: ETTLTQSPSSLSASVGDRVTITCITSTDIDDDMNWYQQKPGKAPKLLISEGNTLRPGVPSRFSGSGSGTDFTLTISSLQPEDFATYYCLQTDSVPLTFGQGTKVEIK
notes: Humanized; variant human IgG4 constant region (EU S228P, L235E, R409K), human kappa; also called B-02; LV0HV0
One may read the Kd as the equilibrium constant for the complex coming apart. The koff is the first-order rate constant of dissociation. Usually kon stands for a measure of how fast the partners come together. As to B3, in test [4], the Kd was < 3.57 nM, the koff was 0.000468 s⁻¹ and the kon was > 131000 M⁻¹ s⁻¹. Moreover, in test [5], the “fold increase of KD against the KM5321 chimeric antibody” value was ~3 fold and the “fold increase of kd against the KM5321 chimeric antibody” value was ~3 fold.

B4: anti-human Gas6 mouse-rat chimeric antibody KM5320-rKG1 (antibody, V domains shown)
VH: QIQLVQSGPELKKPGETVKISCKASGYTFTNYGMNWVKQAPGKGLKWMGWINTETGEPTYSDDFKGRFAFSLETSATTAYLQINNLRNEDMATYFCAREDGYYGTLDYWGQGTSVTVSS
VL: SIVMTQTPKFLLVSAGDRVTITCKASQSVSNDVAWYQQKPGQSPKVLIYYASNRYTGVPDRFTGSGYGTDFTFTISTVQAEDLAVYFCQQDYSSPWTFGGGTKLEIK
notes: 92 and 94 are not tied in words; also called KM5320-rKG1 antibody
On to B4, for which the binding result in test [1] is listed as “no binding”.
